Reference: patent US7799901B2, “Modulators of the function of FAS receptors and other proteins” (Yeda Research and Development Co. Ltd., priority 1995, dated 2010)

Molecular target: T1, FAS-IC (Homo sapiens, UniProt P25445)
T1 construct: the FAS-IC extends-from amino acid residues 175-319 of the intact FAS-R; expressed in transfected cells; host or cells: SFY526 yeast
T1 sequence (P25445 191-335): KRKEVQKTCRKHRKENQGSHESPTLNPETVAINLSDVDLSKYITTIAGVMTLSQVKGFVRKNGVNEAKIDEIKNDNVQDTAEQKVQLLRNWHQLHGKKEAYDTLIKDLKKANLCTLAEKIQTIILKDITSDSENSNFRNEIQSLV
Test: Two-hybrid test of MORT-1 binding (FIG. 1), human Fas-IC
Details: transfected SFY526 yeasts
Excerpt: To isolate proteins interacting with the intracellular domain of the FAS-R, the yeast two-hybrid system was used (Fields and Song, 1989). […] In this system, the genes for the candidate interacting proteins are cloned into separate expression vectors. In one expression vector, the sequence of the one candidate protein is cloned in phase with the sequence of the GAL4 DNA-binding domain to generate a hybrid protein with the GAL4 DNA-binding-domain, and in the other vector, the sequence of the second candidate protein is cloned in phase with the sequence of the GAL4 activation domain to generate a hybrid protein with the GAL4-activation domain. The two hybrid vectors are then co-transformed into a yeast host strain having a lacZ or HIS3 reporter gene under the control of upstream GAL4 binding sites. Only those transformed host cells (cotransformants) in which the two hybrid proteins are expressed and are capable of interacting with each other, will be capable of expressing the reporter gene. In the case of the lacZ reporter gene, host cells expressing this gene will become blue in color when X-gal is added to the cultures. […]
In FIG. 1, there is depicted the interaction of the proteins encoded by the Gal4 DNA binding domain and activation-domain constructs (pGBT9 and pGAD-GH) within transfected SFY526 yeasts as assessed by β-galactosidase expression filter assay. […]

B1: MORT-1: Mediator of Receptor-induced Toxicity; protein binding the intracellular domain of FAS-R, SEQ ID NO:2 (protein)
chain: VNQAPECRFGGGILGPLGKRRDLARASEPRTEGARRAGPQPRPLADPAMDPFLVLLHSVSSSLSSSELTELKFLCLGRVVKRKLERVQSGLDLFSMLLEQNDLEPGHTELLRELLASLRRHDLLRRVDDFEAGAAAGAAPGEEDLCAAFNVICDNVGKDWRRLARQLKVSDTKIDSIEDRYPRNLTERVRESLRIWKNTEKENATVAHLVGALRSCQMNLVADLVQEVQQARDLQNRSGAMSPMSWNSDASTSEAS
  binding to human Fas-IC in two-hybrid test: binds
